Measurements taken from patent EP4793349A2.

Molecular target: cation-independent mannose-6-phosphate receptor (CIMPR)
Assay: CIMPR affinity chromatography of spent culture medium, before AEX capture

- percent able to bind CIMPR: 80%
Substance: recombinant human α-galactosidase A (rhα-Gal A) (from UniProt P06280 32-429) (enzyme)
